Values of other authors as cited in article PMC6236854 (Molecular Imaging, 2018).
Ends that are not written are not given here.

Columns and labels:
[1] = test system: GHSR1a; conditions: read-out: half-maximal inhibitory concentration (IC50), binding affinity
[2] = not given; remark: listed apart in the source

IC50 [1]: 7.63 nM
Substance: ghrelin (GSSFLSPEHQRVQQRKESKKPPAKLQPR; ends and bridges not checked; UniProt Q9UBU3 24-51, looked up) [human ghrelin]
in vitro half-life in rat serum: 0.5 h
in vitro half-life in human serum [2]: 4 h
